This note sets out measurements from paper PMC4446433, “Crystal structure of the Bloom's syndrome helicase indicates a role for the HRDC domain in conformational changes” (Nucleic Acids Research, 2015).

The target in the assay is T1, BLM^636–1072, including the RecA domains (human, UniProt P54132 636-1072).
T1 construct: also called RecA core; D1/D2 domains
The assay can be described thus: BLI; biotinylated HRDC domain immobilised on streptavidin biosensors, RecA domains in solution, in the presence of ADP or ATP; 20-mM HEPES pH 7.5, 200-mM NaCl, 5% glycerol; 60-s windows; Octet RED384; apparent. Conditions: both partners purified. Background: Biolayer interferometry detects binding as a change in optical thickness at a sensor tip.

T1 sequence (P54132 636-1072): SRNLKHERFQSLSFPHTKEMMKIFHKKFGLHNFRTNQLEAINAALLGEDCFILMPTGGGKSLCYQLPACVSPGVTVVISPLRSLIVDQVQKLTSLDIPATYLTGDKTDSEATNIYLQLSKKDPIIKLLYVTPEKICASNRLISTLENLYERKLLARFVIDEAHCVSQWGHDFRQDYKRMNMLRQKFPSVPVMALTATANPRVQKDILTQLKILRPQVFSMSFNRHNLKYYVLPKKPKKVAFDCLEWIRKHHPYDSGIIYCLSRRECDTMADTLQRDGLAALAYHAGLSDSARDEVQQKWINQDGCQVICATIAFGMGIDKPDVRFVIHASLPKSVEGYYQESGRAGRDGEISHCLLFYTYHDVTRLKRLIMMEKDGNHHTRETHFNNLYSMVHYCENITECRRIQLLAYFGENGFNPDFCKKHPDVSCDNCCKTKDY

B1: BLM^1206–1298, encoding the HRDC domain (domain or fragment, human, UniProt P54132 1206-1298, looked up)
chain: AKVSQREEMVKKCLGELTEVCKSLGKVFGVHYFNIFNTVTLKKLAESLSSDPEVLLQIDGVTEDKLEKYGAEVISVLQKYSEWTSPAEDSSPG
modifications: biotin (on the C-terminal biotin acceptor sequence)
notes: The His10 tag is TEV-cleavable, but no cleavage is described; also called isolated HRDC domain; biotinylated HRDC domain; source: E. coli in TB medium with biotin, purified (Ni-IDA, S75 Superdex)
Regarding B1, the Kd lay within 30 to 100 µM.
